The values below come from the Human Domainome abundance scans (Beltran et al. 2025).

± gives the uncertainty stated by the source.

This series in a line: abundance fitness (aPCA) (normalised: wild type 0, dead -1); higher = more abundant; growth selection in yeast, the domain comes from the species named. As to conditions: Homo sapiens.
Turning to “Scaffold attachment factor B1 G52K, Q15424”, the abundance fitness was -1.35 ± 0.18.
The value for “Scaffold attachment factor B1 G52L, Q15424” was -1.34 ± 0.086; that for “Scaffold attachment factor B1 G52M, Q15424” was -1.21 ± 0.077.
On to “Scaffold attachment factor B1 G52N, Q15424”, for which the abundance fitness is -1.45 ± 0.23.
The value for “Scaffold attachment factor B1 G52P, Q15424” was -0.916 ± 0.079; that for “Scaffold attachment factor B1 G52Q, Q15424” was -0.781 ± 0.066.
For “Scaffold attachment factor B1 G52R, Q15424” the value was -1.18 ± 0.054.
The value for “Scaffold attachment factor B1 G52S, Q15424” was -0.786 ± 0.057.
As to “Scaffold attachment factor B1 G52T, Q15424”, the abundance fitness was -0.939 ± 0.078.
The value for “Scaffold attachment factor B1 G52V, Q15424” was -0.978 ± 0.059; that for “Scaffold attachment factor B1 G52W, Q15424” was -1.2 ± 0.073; that for “Scaffold attachment factor B1 G52Y, Q15424” was -1.15 ± 0.11.
The value for “Scaffold attachment factor B1 G69C, Q15424” was -0.431 ± 0.093.
The value for “Scaffold attachment factor B1 G69D, Q15424” was -0.422 ± 0.17; that for “Scaffold attachment factor B1 G69E, Q15424” was -0.552 ± 0.086; that for “Scaffold attachment factor B1 G69H, Q15424” was -0.292 ± 0.11.
“Scaffold attachment factor B1 G69I, Q15424”: the abundance fitness was -0.376 ± 0.084.
Turning to “Scaffold attachment factor B1 G69L, Q15424”, the abundance fitness is -0.558 ± 0.049.
The value for “Scaffold attachment factor B1 G69M, Q15424” was -0.463 ± 0.096.
The value for “Scaffold attachment factor B1 G69N, Q15424” was -0.248 ± 0.099; that for “Scaffold attachment factor B1 G69P, Q15424” was -0.419 ± 0.083.
For the substance “Scaffold attachment factor B1 G69R, Q15424”, the abundance fitness was -0.25 ± 0.06.
With “Scaffold attachment factor B1 G69S, Q15424”, the abundance fitness was -0.397 ± 0.071.
The value for “Scaffold attachment factor B1 G69T, Q15424” was -0.472 ± 0.077; that for “Scaffold attachment factor B1 G69V, Q15424” was -0.454 ± 0.079; that for “Scaffold attachment factor B1 G69W, Q15424” was -0.658 ± 0.067.
Regarding “Scaffold attachment factor B1 G69Y, Q15424”, the abundance fitness is -0.819 ± 0.19.
For “Scaffold attachment factor B1 G70A, Q15424” the value was -0.278 ± 0.061; for “Scaffold attachment factor B1 G70C, Q15424”, -0.259 ± 0.058; for “Scaffold attachment factor B1 G70D, Q15424”, -0.354 ± 0.097.
The value for “Scaffold attachment factor B1 G70E, Q15424” was -0.244 ± 0.072; that for “Scaffold attachment factor B1 G70F, Q15424” was -0.406 ± 0.083; that for “Scaffold attachment factor B1 G70H, Q15424” was -0.467 ± 0.083.
On to “Scaffold attachment factor B1 G70K, Q15424”, for which the abundance fitness was -0.207 ± 0.081.
For the substance “Scaffold attachment factor B1 G70L, Q15424”, the abundance fitness was -0.22 ± 0.051.
On to “Scaffold attachment factor B1 G70M, Q15424”, for which the abundance fitness was -0.307 ± 0.064.
“Scaffold attachment factor B1 G70N, Q15424”: the abundance fitness is -0.511 ± 0.13.
The value for “Scaffold attachment factor B1 G70Q, Q15424” was -0.205 ± 0.068.
Regarding “Scaffold attachment factor B1 G70R, Q15424”, the abundance fitness is -0.196 ± 0.053.
The value for “Scaffold attachment factor B1 G70S, Q15424” was -0.197 ± 0.057.
Take “Scaffold attachment factor B1 G70T, Q15424”: the abundance fitness is -0.408 ± 0.092.
For the substance “Scaffold attachment factor B1 G70W, Q15424”, the abundance fitness is -0.474 ± 0.055.
As to “Scaffold attachment factor B1 G70Y, Q15424”, the abundance fitness is -0.483 ± 0.1.
With “Scaffold attachment factor B1 I37C, Q15424”, the abundance fitness was -0.281 ± 0.072.
The value for “Scaffold attachment factor B1 I37D, Q15424” was -0.175 ± 0.075.
In the case of “Scaffold attachment factor B1 I37G, Q15424”, the abundance fitness was -0.028 ± 0.05.
For “Scaffold attachment factor B1 I37H, Q15424” the value was -0.186 ± 0.085.
The value for “Scaffold attachment factor B1 I37K, Q15424” was -0.103 ± 0.076; that for “Scaffold attachment factor B1 I37L, Q15424” was -0.124 ± 0.056; that for “Scaffold attachment factor B1 I37M, Q15424” was -0.057 ± 0.061.
Turning to “Scaffold attachment factor B1 I37N, Q15424”, the abundance fitness is -0.25 ± 0.078.
For the substance “Scaffold attachment factor B1 I37R, Q15424”, the abundance fitness is -0.04 ± 0.054.
Turning to “Scaffold attachment factor B1 I37S, Q15424”, the abundance fitness was -0.17 ± 0.054.
The value for “Scaffold attachment factor B1 I37V, Q15424” was -0.15 ± 0.06; that for “Scaffold attachment factor B1 I37Y, Q15424” was -0.231 ± 0.059; that for “Scaffold attachment factor B1 I65A, Q15424” was -0.596 ± 0.069.
The value for “Scaffold attachment factor B1 I65C, Q15424” was -0.141 ± 0.087; that for “Scaffold attachment factor B1 I65D, Q15424” was -0.706 ± 0.077.
For “Scaffold attachment factor B1 I65E, Q15424” the value was -0.497 ± 0.085.
In the case of “Scaffold attachment factor B1 I65F, Q15424”, the abundance fitness is -0.466 ± 0.099.
On to “Scaffold attachment factor B1 I65G, Q15424”, for which the abundance fitness was -0.564 ± 0.057.
The value for “Scaffold attachment factor B1 I65H, Q15424” was -0.917 ± 0.14; that for “Scaffold attachment factor B1 I65K, Q15424” was -0.434 ± 0.061; that for “Scaffold attachment factor B1 I65L, Q15424” was -0.143 ± 0.049.
On to “Scaffold attachment factor B1 I65M, Q15424”, for which the abundance fitness is -0.312 ± 0.069.
The value for “Scaffold attachment factor B1 I65N, Q15424” was -0.598 ± 0.089.
For “Scaffold attachment factor B1 I65P, Q15424” the value was -0.559 ± 0.051.
For the substance “Scaffold attachment factor B1 I65R, Q15424”, the abundance fitness was -0.287 ± 0.045.
Regarding “Scaffold attachment factor B1 I65S, Q15424”, the abundance fitness was -0.577 ± 0.058.
As for “Scaffold attachment factor B1 I65W, Q15424”, the abundance fitness was -0.457 ± 0.051.
For “Scaffold attachment factor B1 I65Y, Q15424” the value was -0.535 ± 0.14; for “Scaffold attachment factor B1 I75A, Q15424”, -0.304 ± 0.071; for “Scaffold attachment factor B1 I75C, Q15424”, -0.28 ± 0.086.
As for “Scaffold attachment factor B1 I75D, Q15424”, the abundance fitness was -0.449 ± 0.11.
The value for “Scaffold attachment factor B1 I75E, Q15424” was -0.459 ± 0.09.
For “Scaffold attachment factor B1 I75F, Q15424” the value was -0.371 ± 0.095.
The value for “Scaffold attachment factor B1 I75G, Q15424” was -0.264 ± 0.057; that for “Scaffold attachment factor B1 I75H, Q15424” was -0.543 ± 0.13.
“Scaffold attachment factor B1 I75K, Q15424”: the abundance fitness is -0.253 ± 0.06.
The value for “Scaffold attachment factor B1 I75L, Q15424” was -0.099 ± 0.054; that for “Scaffold attachment factor B1 I75M, Q15424” was -0.19 ± 0.065; that for “Scaffold attachment factor B1 I75N, Q15424” was -0.219 ± 0.058.
The value for “Scaffold attachment factor B1 I75P, Q15424” was -0.31 ± 0.084; that for “Scaffold attachment factor B1 I75Q, Q15424” was -0.311 ± 0.071; that for “Scaffold attachment factor B1 I75R, Q15424” was -0.285 ± 0.057.
For “Scaffold attachment factor B1 I75S, Q15424” the value was -0.257 ± 0.056.
Turning to “Scaffold attachment factor B1 I75T, Q15424”, the abundance fitness is -0.194 ± 0.064.
For “Scaffold attachment factor B1 I75V, Q15424” the value was -0.113 ± 0.049; for “Scaffold attachment factor B1 I77A, Q15424”, -0.157 ± 0.062.
The value for “Scaffold attachment factor B1 I77C, Q15424” was -0.187 ± 0.061; that for “Scaffold attachment factor B1 I77D, Q15424” was -0.212 ± 0.071; that for “Scaffold attachment factor B1 I77E, Q15424” was -0.102 ± 0.092.
The value for “Scaffold attachment factor B1 I77F, Q15424” was -0.076 ± 0.058; that for “Scaffold attachment factor B1 I77G, Q15424” was -0.195 ± 0.064; that for “Scaffold attachment factor B1 I77H, Q15424” was -0.163 ± 0.056.
As to “Scaffold attachment factor B1 I77K, Q15424”, the abundance fitness was -0.136 ± 0.073.
